# The supplement of paper PMC10126150
# ± gives the standard deviation of the averaged measurements.
# Test system: ATP
# Experiment: switch fluorescence ratio, 500 uM ATP over buffer (Cy3 cluster intensity, sum of 5 cycles each) (fold (ratio)); higher = stronger signal-on switching upon ATP binding; sequences stand for … in TCGTCGGCAGCGTCAGATGTGTATAAGAGACAGTTTTTTTTTTTTTTTTTTTTTTTTT…TC
# Conditions: aptamer strand: ATP DNA aptamer (quencher-CACCTGGGGGAGTATTGCGGAGGAAGG + anchor), 100 nM annealed; ATP concentration: 500 uM
# Method in brief: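 The quencher-labelled ATP aptamer, at 100 nM, was annealed to Cy3-labelled switching-strand clusters on a modified Illumina MiSeq flow-cell. The clusters were imaged in selection buffer, then after 15 min with 500 uM ATP at 22 °C, and this buffer/ATP cycle ran five times with NaOH stripping and re-annealing between runs. Per-cluster fluorescence ratios, summed target-cycle over summed buffer-cycle Cy3 intensity, were averaged per switch-domain sequence. Clusters outside 100-1000 RFU were excluded.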
# 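Further: ATP exposure 15 min at 22 °C before imaging.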
row,Sequence,switch fluorescence ratio
1,TTAGTGGATT,0.9958 ± 0.0073
2,GCGAGAACGG,1.01 ± 0.034
3,TTAGGAGATT,1.08 ± 0.14
4,CCTTTTCAGC,1.12 ± 0.025
5,GCGGATGAGA,1.056 ± 0.0096
6,CTCATGTAAG,1.009 ± 0.0014
7,AGTGTAGGGG,1.02 ± 0.028
8,ATGTAAGAGG,0.9754 ± 0.0093
9,ATTACAAATT,1.03 ± 0.05
10,GCCCCGGGGA,1.04 ± 0.011
11,CACGTTGAAC,1.11 ± 0.034
12,AGCCGCCGGG,1.04 ± 0.013
13,AAGGAGGGAT,1 ± 0.036
14,CTAATTCTG,0.98 ± 0.018
15,TAAAGGGGGC,1.05 ± 0.017
16,CGGGCCTATT,0.98938 ± 0.00074
17,TTATTACGG,1 ± 0.027
18,GGGTACCGAA,0.981 ± 0.027
19,TTTAATGGTT,1.02 ± 0.039
20,GTTTTGTCAT,1.01 ± 0.035
21,ACTTTACAAA,1.28 ± 0.036
22,TTTACAAAGT,0.994 ± 0.049
23,GAGTATAGAT,1.001 ± 0.0034
24,GTTGGTGGGG,0.957 ± 0.035
25,GACTATTAGG,0.989 ± 0.029

row,Sequence,switch fluorescence ratio
1,GCAAGAGTGA,1.04 ± 0.038
2,GCGTACAAGA,1.04 ± 0.061
3,TTTCTTCTTT,1.02 ± 0.044
4,AGTATCAGAA,1 ± 0.042
5,TGAGATAAGG,0.987 ± 0.03
6,GCATGTCGAT,1.02 ± 0.023
7,ATGGGGGGCC,0.995 ± 0.026
8,CGGCTGGTTC,0.98 ± 0.04
9,TTGGTTGGCT,1.01 ± 0.018
10,CTAGTGTCTC,0.989 ± 0.025
11,TCATGGTGGG,1 ± 0.025
12,TAGTGTTTTT,0.9775 ± 0.0093
13,GATTTAAATA,0.98 ± 0.018
14,GGGCGCAGCG,0.978 ± 0.031
15,GCAGTATTTG,0.99057 ± 2.4e-05
16,GGGGTTTGCC,0.9678 ± 0.0086
17,GGGATGGATC,0.9929 ± 0.0011
18,ACCACAGAGC,1.04 ± 0.051
19,TGTTATGTTT,0.99 ± 0.032
20,AAAGGATAAG,0.993 ± 0.038
21,CCGCCCGGAT,1.14 ± 0.018
22,GTTGTGGTTC,0.96755 ± 0.00092
23,TGAGAGCGTC,0.89 ± 0.14
24,TTTAGGACTT,0.994 ± 0.021
25,GCTACAGGTT,1.007 ± 0.0092

row,Sequence,switch fluorescence ratio
1,GACGGTAGTT,1.01 ± 0.047
2,TAGAAAGGTC,1.073 ± 0.0025
3,GCTCGGAGGA,1 ± 0.025
4,TTACGATGGT,1.003 ± 0.0032
5,TTGGGGTTGT,1.03 ± 0.12
6,GTCAGGCTGA,0.97427 ± 0.00022
7,TAATAGTGAT,0.983 ± 0.018
8,TAATACTCCT,2.05 ± 0.073
9,TCAACTATTT,0.972 ± 0.031
10,GGAACATAG,0.9987 ± 0.0023
11,TTTATCCTAG,0.976 ± 0.003
12,GATTGGGTTT,0.999 ± 0.019
13,ATGGTTTGGG,0.99 ± 0.045
14,TCGTTGCAGG,1.05 ± 0.092
15,CTATATGTTG,0.985 ± 0.053
16,AGTTTTTATG,1.026 ± 0.0028
17,CCATGGCCTG,0.97 ± 0.042
18,AGTCCTAGGT,1.03 ± 0.022
19,CTGTTATCGA,0.9972 ± 0.0029
20,GAATGGAGGT,1.01 ± 0.021
21,TTACCTGGCT,1.1 ± 0.059
22,TTCCGGCTTT,1.01 ± 0.033
23,CTCTGTTTGG,0.957 ± 0.021
24,CAGCAACATG,1.04 ± 0.024
25,TGGGGGCAGC,1.02 ± 0.025

row,Sequence,switch fluorescence ratio
1,GACGGTAAAG,0.996 ± 0.037
2,GAAGTTGGGT,1.01 ± 0.029
3,CAGTCTATCG,1.01 ± 0.021
4,GCCGTTATGG,1.02 ± 0.053
5,TTGGGTTGGG,0.987 ± 0.018
6,TGGGACTTTG,1.0328 ± 0.001
7,GGTTAAAGGG,1.07 ± 0.15
8,GAAAAAAATT,1.02 ± 0.024
9,GCCGGGAGGG,0.985 ± 0.025
10,CGTGGATGAC,0.9939 ± 0.0096
11,TCGCTTTTGG,1.02 ± 0.033
12,CGAGTAGGTT,1.01 ± 0.011
13,GGGTTTAAAA,0.985 ± 0.044
14,CATTCTGACC,1.08 ± 0.036
15,ATTTCCCTGT,1.01 ± 0.044
16,GTTTTATAGG,0.965 ± 0.021
17,TCAGAAGCGG,1.3 ± 0.1
18,AAGGCTTTTT,0.9935 ± 0.0077
19,AGAGCCCTTA,1.01 ± 0.014
20,ATGTTCAGTT,0.974 ± 0.012
21,TGGGGTTGCA,0.99 ± 0.015
22,CATAATGGTC,0.986 ± 0.041
23,TGGGTTTCCT,0.987 ± 0.017
24,GATGTGTCTG,0.999 ± 0.026
25,AGTTACGGGA,1.1 ± 0.03

row,Sequence,switch fluorescence ratio
1,AGCATTATCT,1.09 ± 0.03
2,TACGGGAGCT,1.05 ± 0.026
3,CGAGTGGGGA,1.04 ± 0.041
4,TCCAGTGTTG,1.08 ± 0.071
5,GATAGACTCT,0.975 ± 0.029
6,ATTTGCTGCG,0.947 ± 0.087
7,CTCTGCAGTG,3.7 ± 0.5
8,GATTGGGTCC,1 ± 0.02
9,CTGGGGGGAG,1.01 ± 0.024
10,AGTTAATAAA,1 ± 0.0019
11,TCATGCTGGT,1.01 ± 0.024
12,AAATGATCCG,1.08 ± 0.063
13,CATGACTAGA,0.981 ± 0.014
14,TGGCACAGGG,1.06 ± 0.016
15,TCTCATAGGT,1.04 ± 0.038
16,TAGGGTGGGC,0.954 ± 0.028
17,ATGGGCCGAG,0.989 ± 0.04
18,ACATTGGCGA,0.988 ± 0.044
19,CATCATCTTG,1 ± 0.062
20,TAGTCTCTTG,1 ± 0.015
21,GAGAAGATTT,1.036 ± 0.0016
22,GGAAAGATAG,1.022 ± 0.0046
23,TTGCTATCTT,0.983 ± 0.052
24,TGTTAAACGG,1.01 ± 0.039
25,GTTTTTCGAT,1.02 ± 0.001

row,Sequence,switch fluorescence ratio
1,AGGGGCTCCG,1.02 ± 0.036
2,CAGATCTGTA,1.0087 ± 0.00071
3,GATGAAGAAA,1.025 ± 0.0026
4,GCGCTAGGGC,1 ± 0.014
5,TTAAGTGTGG,0.973 ± 0.031
6,TTGGATGACA,1.02 ± 0.031
7,CTGTTTTTGT,1.01 ± 0.024
8,CATTGGTTGT,0.927 ± 0.025
9,TTTATTGTCC,0.975 ± 0.034
10,AAGTACAAGG,1.16 ± 0.1
11,AAGATTGTTT,0.986 ± 0.033
12,TAGTTTCGGG,0.997 ± 0.05
13,TTCAACATTT,1.04 ± 0.011
14,AAAAAATAGT,1 ± 0.019
15,ACTTAGTCCA,1.03 ± 0.034
16,CCAGTAGTCC,1.14 ± 0.0031
17,CAGAGGGGTG,1.05 ± 0.012
18,ATATGTAGGT,0.998 ± 0.049
19,AAGTATAATG,1.02 ± 0.054
20,GTTAAAAGGG,1.01 ± 0.028
21,CAAGAGGGTC,1.04 ± 0.067
22,AATTCTTGGG,0.981 ± 0.018
23,CCAGTTAGGA,1.01 ± 0.033
24,CATGAAGGGG,1.02 ± 0.015
25,CTGAGCTGTG,0.968 ± 0.035

row,Sequence,switch fluorescence ratio
1,ATTATATGAC,1.06 ± 0.05
2,ACCCTTCTGC,1.15 ± 0.017
3,TTAGGGCTCA,0.996 ± 0.027
4,GGGAAGGTAG,0.995 ± 0.058
5,CGGAGAAGGA,0.98471 ± 0.00067
6,GGATGCTGTT,1.02 ± 0.012
7,GGTTAAACGG,1.02 ± 0.013
8,GACGATTGTG,0.991 ± 0.07
9,GACATAAAGT,0.986 ± 0.014
10,AAGAGCGGTG,0.952 ± 0.0049
11,CTTTTTTTTC,1.03 ± 0.078
12,CGAGGGCGGG,0.999 ± 0.016
13,AAGACCGGGA,1.01 ± 0.04
14,TTTTTTCCTG,0.989 ± 0.011
15,ATCATGCTTC,0.994 ± 0.025
16,CGGTGAGGAC,0.98264 ± 0.00074
17,TCAATGGTGG,1.01 ± 0.028
18,ATAGGTATCT,0.988 ± 0.019
19,GGAGCCGGGG,1 ± 0.022
20,TAAAGGGAGC,1.12 ± 0.19
21,GTCTCTGGGG,1.08 ± 0.083
22,ATGTCGTGTG,0.9923 ± 0.0066
23,TTAGGTACGG,1.035 ± 0.01
24,TCCTAGTTGT,0.9798 ± 0.0013
25,TTTGTATAGG,0.98 ± 0.035

row,Sequence,switch fluorescence ratio
1,GTGGTTGTCG,0.983 ± 0.015
2,TTGCACGGTC,1.03 ± 0.085
3,GGGGGCCACG,0.984 ± 0.022
4,TACAATGTTT,1.02 ± 0.059
5,ATAAAAAGGA,1.0058 ± 0.00029
6,TGTTTCAACT,0.9843 ± 0.0045
7,ATTGCTAAGC,1.039 ± 0.0054
8,AGATAACTTT,1.02 ± 0.013
9,GGGGTATGGT,1 ± 0.036
10,ACGTAATGG,1.57 ± 0.059
11,CGAGGGTAGG,1.04 ± 0.025
12,GGGAAGGTGG,1.04 ± 0.02
13,TTAGGCGTGT,1.03 ± 0.031
14,TACGTCAGTC,1.05 ± 0.028
15,ATTGTGCTTG,1 ± 0.027
16,CTGCAACTAA,2.27 ± 0.054
17,TTATCCTTCA,1.27 ± 0.36
18,TGGGGTTGGA,1.01 ± 0.025
19,CAGGGGATGC,0.987 ± 0.067
20,CAAGGGGCAC,1.02 ± 0.02
21,AAAGATGTCG,1.07 ± 0.044
22,TTTCCTCTCG,1.54 ± 0.76
23,GTTGGGTATC,0.998 ± 0.023
24,TTCTTTTTGG,0.97 ± 0.042
25,ACGGGGGTG,1.04 ± 0.074
